Experimental findings from patent US20240343811A1 (SHANDONG SIMCERE BIOPHARMACUTICAL, published 2024) are described below.

Changes are numbered by the printed parent chain. Where “and” joins values, the source holds several entries; their conditions need not be identical. Identical values can stand only once. Like-named read-outs stand apart in the source and are kept apart here.

Experiment [1] concerns the target T1, human CD16b (NA2), full length, on FlpinCHO cells (human, UniProt O75015 17-200).
T1 construct: also called FlpinCHO-human CD16b (NA2)
T1 chain: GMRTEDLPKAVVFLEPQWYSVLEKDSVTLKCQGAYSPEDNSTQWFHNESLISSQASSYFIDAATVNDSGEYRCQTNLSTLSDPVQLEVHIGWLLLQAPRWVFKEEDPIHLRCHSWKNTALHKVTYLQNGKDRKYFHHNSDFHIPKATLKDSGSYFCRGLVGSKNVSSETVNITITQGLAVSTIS
Nature of the experiment: FACS on FlpinCHO cells.

The target of experiment [2] is T2, human CD16a (158V), full length, on cells (human, UniProt P08637 17-254).
T2 construct: also used as target for the bought Jurkat-NFAT reporter line stably expressing human CD16a (158V); also called FlpinCHO-human CD16a (158V); FlpinCHO-CD16a (158V)
Nature of the experiment: FACS on FlpinCHO cells.

In experiment [3] the target is T3, cynomolgus monkey CD16, full length, on FlpinCHO cells (cynomolgus monkey, UniProt Q8SPW2 17-254).
T3 construct: also called FlpinCHO-cyno CD16; Flipin CHO-cyno CD16
As to the kind of experiment: FACS on FlpinCHO cells.

Experiment [4] deals with T4, human CD16b (NA1), full length, on FlpinCHO cells (human, UniProt O75015 17-200).
T4 construct: also called FlpinCHO-human CD16b (NA1)
T4 chain: T1 chain with S20R, S49N, N66D, I90V
As to the kind of experiment: FACS on FlpinCHO cells.

Experiment [5] has as its target T5, human CD16a (158F), full length, on FlpinCHO cells (human, UniProt P08637 17-254). Nature of the experiment: FACS on FlpinCHO cells.
The target in experiment [6] is T6, CD16 on primary human NK cells (human, UniProt P08637 17-254).
T6 construct: whole, on cells; also called resting NK cells
As to the kind of experiment: FACS on human NK cells, biotinylated antibody.

For experiment [7], the target named is T6, CD16 on primary human NK cells. Nature of the experiment: FACS on human NK cells, biotinylated antibody, +10 mg/mL human immunoglobulin.
For experiment [8], the target named is T3, cynomolgus monkey CD16, full length, on …. Nature of the experiment: FACS on FlpinCHO cells. The protocol: The required cells were scale-up cultured in a T-75 cell culture flask to the logarithmic growth phase. The medium was aspirated, and the cells were washed twice with a PBS buffer and then digested with trypsin. After the digestion was terminated, the cells were washed twice with the PBS buffer. The cells were counted, and then the cell pellet was resuspended with a [PBS+2% (w/w) BSA] blocking solution to 2×10⁶ cells/ml, and added to a 96-well FACS reaction plate at 50 μl/well. […] 50 μl/well of the antibody to be detected was added at different concentrations, and incubated on ice for 1 hour. […] The mixture was centrifuged and washed 5 times with PBS, and FACS (FACS Canto II, purchased from BD Company) was used for detection and result analysis. Data analysis was performed by software (CellQuest) to obtain the mean fluorescence intensity (MFI) of the cells. Then, software (GraphPad Prism8) was used for analysis, data fitting and EC50 value calculation.
Flipin CHO-cyno CD16 cells were subjected to FACS detection and data analysis according to the method of Example 3.1.
This is another data set of the same source.

Experiment [9] addresses T2, human CD16a (158V), full length, on …. As to the kind of experiment: cell-based or functional assay.
The target in experiment [10] is T1, human CD16b (NA2), full length, on …. Nature of the experiment: FACS on FlpinCHO cells. The procedure, abridged: (§1)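 Trypsin-detached FlpinCHO cells expressing full-length CD16b were blocked in PBS+2% BSA and incubated on ice for 1 hour with antibody at varying concentrations. Binding read by flow cytometry as MFI; EC50 from curve fitting.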
Experiment [11] deals with T4, human CD16b (NA1), full length, on …. As to the kind of experiment: FACS on FlpinCHO cells. The procedure, abridged: as §1
The target of experiment [12] is T2, human CD16a (158V), full length, on …. As to the kind of experiment: FACS on FlpinCHO cells. This is another data set of the same source.
The target in experiment [13] is T5, human CD16a (158F), full length, on …. As to the kind of experiment: FACS on FlpinCHO cells. This is another data set of the same source.
The target in experiment [14] is T2, human CD16a (158V), full length, on …. Nature of the experiment: FACS on FlpinCHO cells. The procedure, abridged:
(§2)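 Trypsinised cells in PBS + 2% BSA were incubated on ice for 1 hour with antibody at a range of concentrations. After washes, mean fluorescence intensity was read by flow cytometry. EC50 values were derived by curve fitting of MFI.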
This is another data set of the same source.

The target in experiment [15] is T5, human CD16a (158F), full length, on …. As to the kind of experiment: FACS on FlpinCHO cells. The method, boiled down: as §2
This is another data set of the same source.

Experiment [16] has as its target T3, cynomolgus monkey CD16, full length, on …. Nature of the experiment: FACS on FlpinCHO cells. The procedure, abridged:
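FlpinCHO cells expressing full-length cynomolgus CD16, blocked in PBS/2% BSA at 2×10⁶ cells/ml, incubated with antibody at various concentrations 1 h on ice. Flow cytometry MFI fitted to give EC50.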
The source holds these as a separate data set.

Experiment [17] concerns the target T1, human CD16b (NA2), full length, on …. As to the kind of experiment: FACS on FlpinCHO cells. The method, boiled down: as §1
Experiment [18] deals with T4, human CD16b (NA1), full length, on …. As to the kind of experiment: FACS on FlpinCHO cells. The procedure, abridged: as §1
The target of experiment [19] is T6, CD16 on primary human NK cells. Nature of the experiment: FACS on human NK cells. The procedure, abridged:
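Freshly prepared human NK cells were resuspended at 2×10⁶ cells/ml in PBS+2% (w/w) BSA and incubated 1 h on ice with antibody at varying concentrations. After five PBS washes, flow cytometry gave mean fluorescence intensity, and EC50 was fitted from the MFI curve.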

The target is the same in experiment [20]. As to the kind of experiment: FACS on human NK cells, biotinylated antibody. The source holds these as a separate data set.
Experiment [21] addresses T2, human CD16a (158V), full length, on …. As to the kind of experiment: FACS, biotinylated antibody.
Experiment [22] concerns the target T5, human CD16a (158F), full length, on …. Nature of the experiment: FACS, biotinylated antibody. A general note: A flow cytometer gives signals particle by particle.
Experiment [23] has as its target T2, human CD16a (158V), full length, on …. As to the kind of experiment: FACS, biotinylated antibody, +10 mg/mL human immunoglobulin.
Experiment [24] concerns the target T5, human CD16a (158F), full length, on …. The experiment is described as above.
For experiment [25], the target named is T6, CD16 on primary human NK cells. Nature of the experiment: FACS on human NK cells, biotinylated antibody, +10 mg/mL human immunoglobulin. The source holds these as a separate data set.
The target in experiment [26] is T2, human CD16a (158V), full length, on …. As to the kind of experiment: cell-based or functional assay. This is another data set of the same source.

T3 sequence (Q8SPW2 other isoform, or with tags, fused parts or gaps limits assumed): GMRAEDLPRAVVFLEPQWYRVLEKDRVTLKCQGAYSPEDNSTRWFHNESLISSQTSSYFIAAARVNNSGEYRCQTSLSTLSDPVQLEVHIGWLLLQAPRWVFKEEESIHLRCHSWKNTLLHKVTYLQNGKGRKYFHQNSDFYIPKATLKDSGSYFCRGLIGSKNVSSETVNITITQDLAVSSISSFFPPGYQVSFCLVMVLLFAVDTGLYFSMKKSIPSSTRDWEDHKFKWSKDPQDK

B1: 3G8 antibody as used to check the stably transfected cell lines (Example 1.3) (antibody, V domains shown)
VH: QVTLKESGPGILQPSQTLSLTCSFSGFSLRTSGMGVGWIRQPSGKGLEWLAHIWWDDDKRYNPALKSRLTISKDTSSNQVFLKIASVDTADTATYYCAQINPAWFAYWGQGTLVTVSA
VL: DTVLTQSPASLAVSLGQRATISCKASQSVDFDGDSFMNWYQQKPGQPPKLLIYTTSNLESGIPARFSASGSGTDFTLNIHPVEEEDTATYYCQQSNEDPYTFGGGTKLEIK
notes: also called CD16 antibody
Take B1: the Mean fluorescence intensity in [1] was determined as 24800; in experiment [2], 5870; in [3], 5500; in experiment [4] it was 28100; in [5] it was 3080.

B2: P2C47 scFv-hFc (Fc fusion)
chain: SYVLTQPSSVSVAPGQTATISCGGHNIGSKNVHWYQQRPGQSPVLVIYQDNKRPSGIPERFSGSNSGNTATLTISGTQAMDEADYYCQVWDNYSVLFGGGTKLTVLGGGGSGGGGSGGGGSQVQLVQSGAEVKKPGESLKVSCKASGYTFTSYYMHWVRQAPGQGLEWMGAIEPMYGSTSYAQKFQGRVTMTRDTSTSTVYMELSSLRSEDTAVYYCARGSAYYYDFADYWGQGTLVTVSSEPKSSDKTHTCPPCPAPEEFGGPSVFLFPPKPKDTLMISRTPEVTCVVVAVSHEDPEVKFNWYVDGVEVHNAKTKPREEQYNSTYRVVSVLTVLHQDWLNGKEYKCKVSNKALPAPIEKTISKAKGQPREPQVYTLPPSREEMTKNQVSLTCLVKGFYPSDIAVEWESNGQPENNYKTTPPVLDSDGSFFLYSKLTVDKSRWQQGNVFSCSVMHEALHNHYTQKSLSLSPGK
notes: also called control antibody P2C47
A word on the EC50: it is the midpoint of the concentration-response curve. In the case of B2, the EC50 is 0.99 nM in experiment [6]; 4.3 nM in experiment [7]; 0.58 nM in experiment [8]; 14.2 nM and 5.12 nM in experiment [10]; 3.18 nM and 5.5 nM in [11]; 0.54 nM in experiment [12]. For the same molecule, the EC50 in [13] was 0.56 nM; in experiment [14], 0.85 nM and 1.03 nM; in [15], 0.62 nM and 0.98 nM; in experiment [16], 0.62 nM; in [18], 3.36 nM; in [19], 0.84 nM. Moreover, the concentration giving a half-maximal response (EC50) is 1.33 nM in experiment [20]; 0.58 nM and 0.77 nM in experiment [21]; 0.41 nM and 0.39 nM in [22]; 3.32 nM and 2.87 nM in experiment [23]; 2.97 nM and 2.63 nM in experiment [24]; 5.4 nM in experiment [25]. For the same molecule, the “Maximum mean fluorescence intensity” value in [6] was found to be 30100; in experiment [7], 28000; in experiment [8], 29200; in experiment [12], 8800; in [13], 9400; in experiment [16], 20100. Moreover, the “Maximum mean fluorescence intensity” value came to 63400 in experiment [17]; 43600 in [18]; 2540 in experiment [19]; 33000 in [20]; 30900 in experiment [25]. The “EC50, activation activity for Jurkat cell” value was 0.04 nM in experiment [9] and 0.06 nM in [26]. Further, the Maximum fluorescence value in [9] came to 158000; in experiment [26], 149000.
